Data reported in paper PMC4601014 (Scientific Reports, 2015).

Biological target: His/S-ΔIBB importin-α1 (mouse, residues 70–529), wild-type (mouse, UniProt P52293 70-529)
Test: ELISA
Conditions: both partners purified

B1: GST-NP ncNLS, wild-type (peptide)
chain: ASQGTKRSYEQMET
notes: also called GST-tagged ncNLS; not shown: GST, N-terminal, kept
Kd: 1700 nM
